Assay results from patent US20210269772A1, “COMPOSITIONS AND METHODS RELATED TO APTAMER-BASED REVERSIBLE CELL SELECTION” (UNIVERSITY OF WASHINGTON, published 2021).

Legend:
[1] = biological target: CD8 alpha (CD8a) on CD8+ T cells / PBMC (Homo sapiens, UniProt P01732 P01732:22-235); assay: flow; apparent Kd on CD8+ T cells, 4 C, 5.5 mM Mg; binding reduced 73-77% by CD8a siRNA; conditions: label: 5'-FAM (cells); biotin (BLI)
[2] = biological target: CD8 alpha (CD8a) extracellular domain (Homo sapiens, UniProt P01732 P01732:22-182); assay: BLI; 25 C, 5.5 mM Mg, tRNA, BSA, 0.01% tween-20; conditions: tags: Sino Biological; label: 5'-FAM (cells); biotin (BLI)
Method: The observed differences in binding affinity values determined by the two methods is expected. Mass transport limitations not present with BLI but present when staining cells in static wells will favor re-binding and thereby limit dissociation, improving the apparent KD of the faster dissociating A3 relative to the other aptamers.
BLI studies were conducted on a ForteBio Octet Red96 instrument at 25° C. with sample agitation at 1000 rpm. The sample buffer used for all steps was comprised of binding buffer with 0.01% tween-20. Streptavidin-coated biosensors were loaded with 50nM biotinylated aptamer until all sensors (except for the reference) reached a capture threshold of 0.5 nm. After a 100 second rinse and baseline steps in buffer alone, sensors were exposed to a 1:3 dilution series of recombinant human CD8a protein (Sino Biological) ranging from 150nM to 5.56nM. Association with protein was monitored for 1200 sec, and dissociation was carried out for 600 second in buffer alone. Data analysis was carried out using Octet Data Analysis 9.0 software (ForteBio). Kinetic constants were calculated by conducting a global fit of the several processed association and dissociation curves from the protein dilution series to a 1:1 binding model. The quality of the fit was evaluated by the R2 and χ2 values.

Sequence of CD8 alpha (CD8a) on CD8+ T cells / PBMC (P01732 22-235, one chain of several): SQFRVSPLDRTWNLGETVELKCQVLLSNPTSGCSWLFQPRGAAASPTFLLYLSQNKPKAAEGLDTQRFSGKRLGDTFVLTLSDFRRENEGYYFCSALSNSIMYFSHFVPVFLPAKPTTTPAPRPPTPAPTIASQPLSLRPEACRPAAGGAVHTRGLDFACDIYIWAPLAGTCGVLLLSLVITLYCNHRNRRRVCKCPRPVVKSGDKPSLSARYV
Sequence of CD8 alpha (CD8a) extracellular domain (P01732 22-182, one chain of several): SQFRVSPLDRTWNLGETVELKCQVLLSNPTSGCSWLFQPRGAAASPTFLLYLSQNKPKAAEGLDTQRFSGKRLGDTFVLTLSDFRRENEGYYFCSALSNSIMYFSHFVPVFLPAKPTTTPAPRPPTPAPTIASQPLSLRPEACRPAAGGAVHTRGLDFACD

B1: A3 (ssDNA)
DNA: ATCCAGAGTGACGCAGCAACAGAGGTGTAGAAGTACACGTGAACAAGCTTGAAATTGTCTCTGACAGAGGTGGACACGGTGGCTTAGT
In the case of B1, the Kd [1] is reported as 1.9 nM.

B2: A8 (ssDNA)
DNA: ATCCAGAGTGACGCAGCAGCTCGATCGTATAGCCGTGACGCAGCTTGAAATGGGATCGCGTCCACAGTTTTGGACACGGTGGCTTAGT
B2 was tested, and the Kd [1] was 2.4 nM.

B3: A1 (ssDNA)
DNA: ATCCAGAGTGACGCAGCACGCAGCACCCGTGGTAGTGTATCAGGGAGACACTACGTGATGCAGCTTGAAATGGACACGGTGGCTTAGT
B3 gave a Kd [2] of 20.1 nM and a Kd [1] of 18.3 nM.
